US11260115B1, “Peptides and combination of peptides for use in immunotherapy against CLL and other cancers” (immatics biotechnologies GmbH, priority 2015, dated 2022)

biological target: HLA-A*02:01 (Homo sapiens, UniProt P04439, D140Y/D185E/D98H/E176V/E277Q/G131W/G231S/I119V/I121R/I166T/I218V/L300P/L318F/N151K/N90K/P208A/P217A/Q86G/Q94H/R138H/R169H/T345S); test: MHC binding assay (UV-ligand exchange, β2m ELISA, peptide exchange yield); conditions: binding to HLA-A*02:01
Procedure, shortened: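 Peptide-HLA-A*02:01 complexes formed by UV-mediated exchange of a photocleavable ligand; exchange yield measured by streptavidin-capture ELISA detecting β2m with HRP anti-β2m, TMB read at 450 nm. Refolded monomer standards 15-500 ng/ml; samples diluted 100-fold.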

Substance | Peptide Exchange (MHC class I binding score, peptide exchange yield)
153 (SLLAELHVL; listed as Homo sapiens) [compound 153] | “+++” (>50 = +++)
146 (SIIEGPIIKL; listed as Homo sapiens) [compound 146] | “+++” (>50 = +++)
140 (QIAELPATSV; listed as Homo sapiens) [compound 140] | “+++” (>50 = +++)
132 (LVYEAIIMV; listed as Homo sapiens) [compound 132] | “+++” (>50 = +++)
71 (GLKHDIARV; listed as Homo sapiens) [compound 71] | “+++” (>50 = +++)
106 (FMASHLDYL; listed as Homo sapiens) [compound 106] | “+++” (>50 = +++)
66 (SLAGGLDDMKA; listed as Homo sapiens) [compound 66] | “+++” (>50 = +++)
107 (ILYNLYDLL; listed as Homo sapiens) [compound 107] | “+++” (>50 = +++)
141 (QILSEIVEA; listed as Homo sapiens) [compound 141] | “++” (>20% = ++)
12 (ALGEDEITL; listed as Homo sapiens) [compound 12] | “+++” (>50 = +++)
143 (QLLDTYFTL; listed as Homo sapiens) [compound 143] | “+++” (>50 = +++)
61 (FVYFIVREV; listed as Homo sapiens) [compound 61] | “+++” (>50 = +++)
39 (FLDALLTDV; listed as Homo sapiens) [compound 39] | “+++” (>50 = +++)
148 (SIVASLITV; listed as Homo sapiens) [compound 148] | “+++” (>50 = +++)
111 (KLWNVAAPLYL; listed as Homo sapiens) [compound 111] | “+++” (>50 = +++)
157 (SLNIRDFTM; listed as Homo sapiens) [compound 157] | “+++” (>50 = +++)

Substance | Peptide Exchange (MHC class I binding score, peptide exchange yield)
25 (ATYSGLESQSV; listed as Homo sapiens) [compound 25] | “++” (>20% = ++)
28 (AVLHLLLSV; listed as Homo sapiens) [compound 28] | “++” (>20% = ++)
4 (VIAELPPKVSV; listed as Homo sapiens) [compound 4] | “+++” (>50 = +++)
6 (ALDTLEDDMTI; listed as Homo sapiens) [compound 6] | “+++” (>50 = +++)
80 (VLIEDELEEL; listed as Homo sapiens) [compound 80] | “++” (>20% = ++)
5 (ALIFKIASA; listed as Homo sapiens) [compound 5] | “+++” (>50 = +++)
152 (SLIRILQTI; listed as Homo sapiens) [compound 152] | “+++” (>50 = +++)
158 (SLPEAPLDV; listed as Homo sapiens) [compound 158] | “+++” (>50 = +++)
166 (TLDPNQVSL; listed as Homo sapiens) [compound 166] | “++” (>20% = ++)
59 (FVFGDENGTVSL; listed as Homo sapiens) [compound 59] | “+++” (>50 = +++)
95 (ILGYMAHEHKV; listed as Homo sapiens) [compound 95] | “++” (>20% = ++)
151 (SLFDSAYGA; listed as Homo sapiens) [compound 151] | “+++” (>50 = +++)
135 (MTAGFSTIAGSV; listed as Homo sapiens) [compound 135] | “+” (>10% = +)
67 (GLDDVTVEV; listed as Homo sapiens) [compound 67] | “++” (>20% = ++)
105 (KLMNDIADI; listed as Homo sapiens) [compound 105] | “++” (>20% = ++)

Continued, values first:

Peptide Exchange (MHC class I binding score, peptide exchange yield) | Substance
“++” (>20% = ++) | 306 (VVAEELENV; listed as Homo sapiens) [compound 306]
“+++” (>50 = +++) | 342 (SLITPLQAV; listed as Homo sapiens) [compound 342]
“+++” (>50 = +++) | 335 (YLYQEQYFI; listed as Homo sapiens) [compound 335]
“+++” (>50 = +++) | 230 (FLQDSKVIFV; listed as Homo sapiens) [compound 230]
“++” (>20% = ++) | 296 (FIAPTGHSL; listed as Homo sapiens) [compound 296]
“+++” (>50 = +++) | 206 (HMQDVRVLL; listed as Homo sapiens) [compound 206]
“+++” (>50 = +++) | 365 (LISPLLLPV; listed as Homo sapiens) [compound 365]
“+++” (>50 = +++) | 291 (ILLNEDDLVTI; listed as Homo sapiens) [compound 291]
“+++” (>50 = +++) | 315 (LVYEAPETV; listed as Homo sapiens) [compound 315]
“+++” (>50 = +++) | 227 (FLAEASVMTQL; listed as Homo sapiens) [compound 227]
“++++” (>75% = ++++) | 328 (VLLPQETAEIHL; listed as Homo sapiens) [compound 328]
“++++” (>75% = ++++) | 294 (ALLDQLHTLL; listed as Homo sapiens) [compound 294]
“+++” (>50 = +++) | 374 (VLSVITEEL; listed as Homo sapiens) [compound 374]
“+++” (>50 = +++) | 355 (FIWPMLIHI; listed as Homo sapiens) [compound 355]
“+++” (>50 = +++) | 260 (SLDDVEGMSV; listed as Homo sapiens) [compound 260]
“+++” (>50 = +++) | 222 (ALWELSLKI; listed as Homo sapiens) [compound 222]
“+++” (>50 = +++) | 313 (LMADLEGLHL; listed as Homo sapiens) [compound 313]
“+++” (>50 = +++) | 268 (TLLQVFHLL; listed as Homo sapiens) [compound 268]

Peptide Exchange (MHC class I binding score, peptide exchange yield) | Substance
“++” (>20% = ++) | 353 (ATPMPTPSV; listed as Homo sapiens) [compound 353]
“++” (>20% = ++) | 247 (KLKDRLPSI; listed as Homo sapiens) [compound 247]
“+++” (>50 = +++) | 204 (GLLQINDKIAL; listed as Homo sapiens) [compound 204]
“++” (>20% = ++) | 188 (VMGDIPAAV; listed as Homo sapiens) [compound 188]
“++” (>20% = ++) | 373 (TLLADQGEIRV; listed as Homo sapiens) [compound 373]
“+++” (>50 = +++) | 273 (VLGEYSYLL; listed as Homo sapiens) [compound 273]
“+++” (>50 = +++) | 275 (VLLFIEHSV; listed as Homo sapiens) [compound 275]
“+++” (>50 = +++) | 203 (ALLSSQLAL; listed as Homo sapiens) [compound 203]
“++” (>20% = ++) | 277 (VMILKLPFL; listed as Homo sapiens) [compound 277]
“+++” (>50 = +++) | 279 (YMAPEVVEA; listed as Homo sapiens) [compound 279]
“+++” (>50 = +++) | 198 (YLTFLPAEV; listed as Homo sapiens) [compound 198]
“++++” (>75% = ++++) | 187 (VMDTHLVNI; listed as Homo sapiens) [compound 187]
“+++” (>50 = +++) | 215 (VMQDIVYKL; listed as Homo sapiens) [compound 215]
“+++” (>50 = +++) | 282 (LLRDGIELV; listed as Homo sapiens) [compound 282]
“+++” (>50 = +++) | 214 (RLQELTEKL; listed as Homo sapiens) [compound 214]
“+++” (>50 = +++) | 193 (YLDLSNNRL; listed as Homo sapiens) [compound 193]
“+++” (>50 = +++) | 243 (ILPTLEKELFL; listed as Homo sapiens) [compound 243]
“+++” (>50 = +++) | 330 (VLMWEIYSL; listed as Homo sapiens) [compound 330]
